In paper PMC9253517 (The Journal of Experimental Medicine, 2022):

B1: JN110 (antibody, V domains shown)
VH: QVQLVQSGAEVKKPGSSVKVSCKASGGTFSSYAISWVRQAPGQGLEWMGGIIPIFGTANYAQKFQGRVTITADKSTSTAYMELSSLRSEDTAVYYCARDPAFYYDILTGYGGYYYYGMDVWGQGTTVTVSS
VL: DIVMTQTPLSLSVTPGQPASISCKSSQSLLHSDGKTYLYWYLQKPGQPPQLLIYEVSNRFSGVPDRFSGSGSGTDFTLKISRVEAEDVGVYYCMQSIQLPPTFGQGTKVEIK
B2: JR068 (antibody, V domains shown)
VH: QVQLQESGPGLVKPSQTLSLTCTVFGGSIRSGDYYWSWIRQPPGKGLEWMGYIYSSGSAYYNPSLESRVTISIDASKNQFSLKVNSVTAADTAVYYCARDGFWFGFGSFDIWGLGTMVTVSS
VL: EIVMTQSPATLSVSPGERAALSCRASQSVSSNLAWYQQRVGQAPRLLIYGASTRATGIPARFSGSGSGTEFTLTISSLQSEDFAVYYCQQYNNWPPLTFGGGTKVEIK
B3: JR072 (antibody, V domains shown)
VH: VQLVESGGGVVQPGRSLRLSCAASGFTFSTYGMHWVRQAPGKGLEWVAGISYDGSDKYYGDSVRGRFTVSRDNSKNTLYLQMNSLRAEDTAVYYCAKGQGPYCSAGNCYTHYFDYWGQGTLVTVSS
VL: EIVLTQSPATLSLSPGERATLSCRASQSVGNYLAWYQQKPGQAPRLLIDDASNRAAGTPARFSGSGSGTDFTLTISSLEPEDFAVYYCQQRSNWPPITFGQGTRLEIK
B4: JR325 (antibody, V domains shown)
VH: QVQLQESGPGLVKPSQTLSLTCTVSGGSISSSDYYWSWIRQHPGKGLEWIGFIFYSGTTYYSPALKSRVSISVDTSKSQFSLKLHSVTAADTAVYYCARFSRNLGLNWFDPWGQGTLVTVSS
VL: QFVLTQPASVSGSPGQSITISCTGTSSDIGSYDLVSWYQQYPGKAPKLIIYEVNKRPSGVSSRFSGSKSGNTASLTISGLLAEDEADYYCCSYAGPNTVLFGGGTILTV
B5: JR154 (antibody, V domains shown)
VH: EVQLVESGGGLVQPGRSLRLSCEASGFIFDDYAMHWVRQGPGKGLEWVSGITSNSGSMGYADSVKGRFTISRDNAKNSLYLQMNSLRPEDTAFYYCAKDMVSGVFLWFGELENWGQGTLVTVS
VL: QSVLTQPPSASGTPGQRVTISCYGSRSNFGTNTVNWYQQLPGMAPRLLIHSHNQRPSGVPARFSGSKSGTSASLAISGLQSEDEAHYYCASWDGGLNAVVFGGGTKLIVL
B6: JN109 (antibody, V domains shown)
VH: QVQLVESGGGVVQPGRSLRLSCAASGFTFSSYGMHWVRQAPGKGLEWVAVIWYDGSNKYYADSVKGRFTISRDNSKNTLYLQMNSLRAEDTAVYYCARVRTIFRPLDYMDVWGKGTTVTVSS
VL: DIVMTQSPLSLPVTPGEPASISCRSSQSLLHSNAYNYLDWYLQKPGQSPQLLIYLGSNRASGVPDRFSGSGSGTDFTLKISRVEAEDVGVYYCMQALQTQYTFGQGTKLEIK
B7: JR065 (antibody, V domains shown)
VH: VQLVESGGGVAQPGRSLRLSCAASGFTFSHYGMHWVRQGPGKGLEWVAGISFDGSDKYYADSVKGRFTISRDNSKNTFYLQMNSLRTDDTAVFYCAKQGFGYGSGWYYFDYWGQGTLVTVSS
VL: IRMTQSPSSLSASVGDRVTITCQASQDISKYLNWYQQRPGKAPKPLIYDASNLETGVPSRFSGSGSGTDFTLTITNLQPEDIATYYCQQYDNVPSVTFGQGTRLEIK
B8: JR195 (antibody, V domains shown)
VH: EVQLVESGGGLVQPGRSLRLSCAASGFTFDDYTMHWVRQAPGKGLEWVSAISWNSDALGYADSVKGRFTISRDNAKNSLYLQMNSLRPEDTALYYCAKDIDFGGSGSFDVFHIWGHGTMVTVS
VL: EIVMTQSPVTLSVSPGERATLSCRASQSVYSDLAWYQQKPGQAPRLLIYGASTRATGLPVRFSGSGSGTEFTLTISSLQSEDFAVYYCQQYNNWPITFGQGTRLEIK
B9: JR078 (antibody, V domains shown)
VH: VQLVESGGGVVQPGRSLRLSCAASGFIFRSYGMNWVRQAPGKGLEWVAVMSYDGNDKDYADSVKGRFTISRDDSKNTLYLQMNSLRAEDTAVYYCAKSGGLYCSGGNCYSNYFDYWGRGTLVTVSS
VL: EIVLTQSPGTLSLSPGERATLSCRASQSVSSSYLAWYQQKPGQAPRLLISGASSRAAGIPDRFSGSGSGTDFTLTISRLAPEDFAVYYCQQYGYSLTFGGGTKVEIK
B10: JR204 (antibody, V domains shown)
VH: QVQLQESDPGLVTPSETLSLTCTVSGASVSSGSDYWNWIRQPPGKGLEWIGYIYYTGRTNYNPSLKSRVTISVDTSKNQFSLKLSSVTAADTAVYYCAREVIVLPAALPPFGLDVWGQGTTVTVSS
VL: SYELTQPPSVSVAPGKTARITCGGNNIGTKSVHWYQQKPGQAPVLVVYDDSDRPSGIPERFSGSNSENTATLTISRVEAGDEADYSCQVWDSSGDHVVFGGGTKLTVL
B11: JR150 (antibody, V domains shown)
VH: QVQLVQSGAEVKKPGASVKVSCKASRYTFASYYMHWVRQAPGQGLEWMGIINPGGGSTSYAQNFQGRVSMTSDTSTSTVYMELRSLRSEDTAVYYCARDSEFVPTAHGAFEIWGQGTMVTVSS
VL: EIVLTQSPATLSLSPGERATLSCRASQSVSSYLAWYQQKPGQAPRLLIYDASNRATGIPARFSGSGSGTDFTLTISSLEPEDFAVYYCQQRSNWLVTFGGGTKVEIK
B12: JR340 (antibody, V domains shown)
VH: EVQLVESGGGLVQPGRSLRLSCTASGFTFHDYALQWVRQVPGKGLEWVSGISWNSASTGYADSVKGRFTISRDNAKNSLYLQMNSLRAEDTALYYCAKVRSTSCYLACGMDVWGQGTTVTVSS
VL: QSALTQPASVSGSPGQSITISCTGTSSDVGSYNLVSWYQQHPGKAPKLMISEVSKRPSGVSNRFSGSKSGNTASLTISGLQAEDEADYYCCSYALSRILFGGGTKLTVL
B13: JR053 (antibody, V domains shown)
VH: QVQLVQSGAEVKKPGASVKVSCKASGYTFTSHYMHWVRQAPGQGLEWMGIINPSGGSTSHAQKFQGRVTLTSDTSTSTVYMELSSLRSEDTAVYYCARDLSFIPSIAWNCGYWGQGTLVTVSS
VL: QSALTQPASVSGSPGQSITISCTGTSSDVGGYNYVSWYQQHPGKAPKLMIYDVSDRPSGVSNRFSGSKSGNTASLTISGLQAEDEADYYCSSYTSSSSYVFGTGTKVTVL
B14: JR069 (antibody, V domains shown)
VH: EVQLVESGGGLVQPGGSLRLSCAASGFSFSNYDMLWLRQITGRGLEWVSLIGTSGDTYYSDSVKGRFTISRENGKNSLYLQMNRLRAGDTAVYYCARGNFDTSGFYSYFDTWGQGTLVTVSS
VL: DIQLTQSPSYLSASVGDRVTITCRASQTIKNYLNWYQQKPGKAPKLLIYAVSTLQNGVSSRFRGSGSGTDFTLTISSLQPEDFATYYCQQSYTIPPYTFGQGTKLEIK
B15: JN117 (antibody, V domains shown)
VH: QVQLVQSGAEVKKPGASVKVSCKASGYTFTSYDINWVRQATGQGLEWMGWMNPNSGNTGYAQKFQGRVTMTRNTSISTAYMELSSLRSEDTAVYYCALGTTPWYYFDYWGQGTLVTVSS
VL: SYELTQPPSVSVSPGQTARITCSGDALPKQYAYWYQQKPGQAPVLVIYKDSERPSGIPERFSGSSSGTTVTLTISGVQAEDEADYYCQSADSSGTYVFGTGTKVTVL
B16: JN103 (antibody, V domains shown)
VH: EVQLVKSGGGLIQPGGSLRLSCAASGFTVSSNYMSWVRQAPGKGLEWVSVIYSGGSTYYADSVKGRFTISRDNSKNTLYLQMNSLRAEDTAVYYCARDLYSSGGTDIWGQGTMVTVSS
VL: QTVVTQEPSFSVSPGGTVTLTCGLTSGSVSTSHYPSWYQQTPGQAPRTLIDSTNIRSFGVPDRFSGSILGNKAALTITGAQADDEADYYCILYVGNGIWMFGGGTRLTVL
B17: JN007 (antibody, V domains shown)
VH: EVQLVESGGGLIQPGGSLRLSCAASGFTVSSNYMSWVRQAPGKGLEWVSVIYTGGSTYYADSVKGRFTISRDNSNNSLYLRMNSLRAEDTAVYYCARGPYYDFRSGYSPGWFDPWGQGTLVTVSS
VL: not shown
B18: JR077 (antibody, V domains shown)
VH: EVQLVESGGGLVQPGGSLRLSCAASGFTFSDYDMHWVRQVTGKGLEWVSAVGTRGDTYYAASVKGRFTISRENAKNSLYLQMNSLRAGDTAVYYCARVGYDSTGFYYYFDYWGQGTLVTVSS
VL: DIQLTQSPSSLSASVGDRVTITCRASQRIGRFLNWYQQKPGKAPKLLIYIVSSLQSGVPSRFSGSGSGTDFTLTINSLQPEDFATYYCQQTYNMPPITFGQGTRLEIK
B19: JR060 (antibody, V domains shown)
VH: QVQLVQSGAEVKKPGASVRVSCKASGYTFNNYGIIWVRQAPGQGLEWVGWISAYNANTNYAQKLQGRVSMTTDTPTSTVYMELRSLRSDDTAVYYCASGLGAAGTEPPSDYWGQGTLVTVSS
VL: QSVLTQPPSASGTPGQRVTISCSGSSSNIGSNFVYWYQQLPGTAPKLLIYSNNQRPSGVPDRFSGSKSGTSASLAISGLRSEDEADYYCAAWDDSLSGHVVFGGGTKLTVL
B20: JN115 (antibody, V domains shown)
VH: QVQLVQSGAEVRKPGASVKVSCKVSGYTLIDLSIHWVRQAPGKGLEWMGGFDPEDGETIYAQKFQGRVTMTEDTSTDTAYMELSSLRSEDTAVYYCATSSSIVISGWFDPWGQGTLVTVSS
VL: QSALTQPASVSGSPGQSITISCTGTSSDVSGYNYVSWYQQHPGKVPKLLIYDVSNRPSGVSNRFSGSKSGNTASLTISGLQAEDEADYYCSSYTSSSTLVYVFGTGTKVTVL
B21: JR050 (antibody, V domains shown)
VH: QVQLVQSGAEVKKPGASVKVSCKTSGDTFTNHYMHWVRQAPGQGLEWMGIINPSAGSTSYAQKFQGRVTMTRDTSTSTVYMELSSLRSEDTAVYYCARDIVFIPALDAFDIWGQGTMVTVSS
VL: EIVLTQSPATLSLSPGERATLSCRASQSVSSYLAWYQQKPGQAPRLLIYDTSNRATGIPARFSGSGSGTDFTLTISSLEPEDFAVYYCQQRRNWPPMYTFGQGTKLEIK

How the values were obtained:
[1] = target: SARS-CoV-2 Wuhan-Hu-1 NTD (SARS-CoV-2, UniProt P0DTC2 14-307); test: cell-based or functional assay
[2] = target: T1, SARS-CoV-2 Wuhan-Hu-1 RBD (SARS-CoV-2, Wuhan-Hu-1 (GenBank …, UniProt P0DTC2)); test: cell-based or functional assay
[3] = target: T1, SARS-CoV-2 Wuhan-Hu-1 RBD; test: BLI; conditions: both partners purified

Binder | neutralisation IC50, WT (293TAce2) [1] | neutralisation IC50, Wuhan-Hu-1 pseudovirus [2] | binding result [3]
B1 | > 1 µg/mL |  | 
B2 |  | > 1 µg/mL | binds
B3 |  | > 1 µg/mL | binds
B4 |  | > 1 µg/mL | binds
B5 |  | > 1 µg/mL | binds
B6 | > 1 µg/mL |  | 
B7 |  | > 1 µg/mL | binds
B8 |  | > 1 µg/mL | binds
B9 |  | > 1 µg/mL | binds
B10 |  | > 1 µg/mL | binds
B11 |  | > 1 µg/mL | binds
B12 |  | > 1 µg/mL | binds
B13 |  | > 1 µg/mL | binds
B14 |  | > 1 µg/mL | binds
B15 | > 1 µg/mL |  | 
B16 | > 1 µg/mL |  | 
B17 | > 1 µg/mL |  | 
B18 |  | > 1 µg/mL | binds
B19 |  | > 1 µg/mL | binds
B20 | > 1 µg/mL |  | 
B21 |  | > 1 µg/mL | binds
